Test results as given in publication PMC11944577.

Target: T1, MgrA (Staphylococcus aureus XN108) (UniProt P0C1S0)
T1 sequence: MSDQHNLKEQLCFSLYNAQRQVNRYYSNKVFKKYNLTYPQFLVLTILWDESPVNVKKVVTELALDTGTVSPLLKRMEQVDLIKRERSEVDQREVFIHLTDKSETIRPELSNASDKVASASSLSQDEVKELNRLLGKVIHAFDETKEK
Assay: competition

Q: For “TTTACGTGCAGCACGTTCACGTACCTCAAAGTTACCGAAACCAATTAATTGTACTTTTTCACCTTTAGCAAGTGAGTTTTGGATTGATTCGAATACAGCATCTACTGCTGAACCAGCTTCTTTTT (double strand) [hu fragment (competitor)]”, which binding is on record?
A: no binding
